Results reported in article PMC11101737.

Target: glucocorticoid receptor (GR) (UniProt P04150 1-777)
Experiment: EMSA

Chain of glucocorticoid receptor (GR) (P04150 whole entry): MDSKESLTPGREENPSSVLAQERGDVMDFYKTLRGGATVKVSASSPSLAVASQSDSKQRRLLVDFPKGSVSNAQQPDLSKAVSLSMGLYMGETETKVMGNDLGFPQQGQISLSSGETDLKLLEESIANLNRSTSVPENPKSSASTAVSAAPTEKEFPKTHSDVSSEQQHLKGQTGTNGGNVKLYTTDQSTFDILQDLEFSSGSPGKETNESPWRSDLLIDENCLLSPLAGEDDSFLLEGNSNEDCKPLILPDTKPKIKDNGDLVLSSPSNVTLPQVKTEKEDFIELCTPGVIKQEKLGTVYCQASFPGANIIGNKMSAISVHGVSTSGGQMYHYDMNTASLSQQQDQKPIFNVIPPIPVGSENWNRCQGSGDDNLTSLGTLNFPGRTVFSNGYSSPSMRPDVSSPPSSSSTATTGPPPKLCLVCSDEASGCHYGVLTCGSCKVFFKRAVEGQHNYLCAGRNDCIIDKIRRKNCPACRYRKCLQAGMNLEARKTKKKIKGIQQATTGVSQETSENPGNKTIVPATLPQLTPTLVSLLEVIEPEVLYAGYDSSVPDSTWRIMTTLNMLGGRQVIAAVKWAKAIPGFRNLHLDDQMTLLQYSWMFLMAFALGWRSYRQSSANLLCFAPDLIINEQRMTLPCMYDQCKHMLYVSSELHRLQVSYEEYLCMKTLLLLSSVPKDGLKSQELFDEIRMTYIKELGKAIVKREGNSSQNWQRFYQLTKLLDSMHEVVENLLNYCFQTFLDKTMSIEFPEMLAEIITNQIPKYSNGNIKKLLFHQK

Binder	binding result
AAV2 D-sequence (D) (dsDNA) DNA 1: CTCCATCACTAGGGGTTCCT DNA 2: AGGAACCCCTAGTGATGGAG	binds
GRE (dsDNA) DNA 1: CTAGGCTGTACAGGATGTTCTGCCTAG DNA 2: CTAGGCAGAACATCCTGTACAGCCTAG	binds
